# Results reported in paper PMC7566566.
# T1: Hera (Thermus thermophilus, UniProt O07897 1-510)
# T1 sequence: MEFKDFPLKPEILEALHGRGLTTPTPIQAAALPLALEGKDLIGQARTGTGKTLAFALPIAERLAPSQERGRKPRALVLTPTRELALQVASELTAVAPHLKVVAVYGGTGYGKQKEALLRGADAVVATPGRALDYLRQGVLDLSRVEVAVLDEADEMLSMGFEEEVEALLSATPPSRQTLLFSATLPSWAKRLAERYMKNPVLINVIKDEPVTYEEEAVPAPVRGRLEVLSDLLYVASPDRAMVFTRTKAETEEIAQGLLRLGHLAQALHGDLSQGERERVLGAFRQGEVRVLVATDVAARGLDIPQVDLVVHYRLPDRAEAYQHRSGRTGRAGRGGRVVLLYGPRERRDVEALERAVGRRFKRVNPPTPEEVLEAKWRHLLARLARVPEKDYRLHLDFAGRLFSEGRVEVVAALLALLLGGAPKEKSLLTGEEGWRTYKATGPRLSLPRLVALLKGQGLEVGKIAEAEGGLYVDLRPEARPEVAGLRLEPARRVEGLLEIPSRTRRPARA
# Biological target: T1, Hera
# Test: competition
row,Binder,binding result
1,GCCAAGCCGGGCCUGGAC (ssRNA) [RNA 1638],no binding
2,CUCGUGGCCCUGGCGAGGAGGCUCGUGGAGGAGUAC (ssRNA) [RNA 1640],no binding

# Biological target: T1, Hera
# Test: competition
# Remark: another data set of the same source
Binder,binding result,Kd [nM]
UAGGGGCGUGUGGGCCCACCCGGCGUGGCGCUGGCUCCACC (ssRNA) [RNA 2],binds,
tRNASer (TT_RS06780) (structured_RNA) RNA: GGAGAGGUGGCCGAGUGGUCGAAGGCGGCACCCUGCUAAGGUGUUGCACCGGGAAAACCGGUGCCGCGGGUUCGAAUCCCGCCCUCUCCGCCA,,60
AAAAAAAAAAAAAAAAAAAAAAAAAAAAAAAAAAAAAAAAAAAAAAAAAA (ssRNA) [50A],no binding,
CUGGCUUGCCCGGGAGAUCCUGGGCUACCCCGA (ssRNA) [RNA 9],binds,
tRNAPro (TT_RS09670) (structured_RNA) RNA: CGGGGAGUAGCGCAGCCUGGUAGCGCACACGCUUGGGGUGCGUGGGGUCGUCGGUUCAAAUCCGGCCUCCCCGACCA,,400
UUUGGGGCUGCGGGGCUGGACCCCACGGGCGCCGCCACCC (ssRNA) [RNA 13],binds,
tRNATyr (TT_RS08805) (structured_RNA) RNA: GGGCAGGUGCCCGAGCGGCCAAAGGGGACGGUCUGUAAAACCGUUGGCGUAUGCCUUCGCUGGUUCGAAUCCAGCCCUGCCCACCA,,400
UUUUUUUUUUUUUUUUUUUUUUUUUUUUUUUUUUUUUUUUUUUUUUUUUU (ssRNA) [50U],,240 ± 50
AGGTCCCAA (ssDNA) [9mer DNA],no binding,
tRNAPro (TT_RS01350) (structured_RNA) RNA: CGGGGCGUAGCGCAGGCCGGUAGCGCACCUGCUUUGGGAGCAGGGGGUCGCCCGUUCAAAUCGGGCCGCCCCGACCA,,1400
tRNAGly (TT_RS08190) (structured_RNA) RNA: GCGGGAGUAGCUCAGUCGGUAGAGCACGACCUUGCCAAGGUCGGGGUCGCGGGUUCAAGUCCCGUCUCCCGCUCCA,,400
tRNAPro (TT_RS02830) (structured_RNA) RNA: CGGGGAGUAGCGCAGCCCGGUAGCGCACCUCGUUCGGGACGAGGGGGUCGCUGGUUCAAAUCCAGUCUCCCCGACCA,,600

# Biological target: T1, Hera
# Test: competition
# Remark: another data set of the same source
row,Binder,binding result
1,CCUGCACGUUCCCACCGCCUGGGU (ssRNA) [RNA 1654],no binding
